Measurements taken from CN113735969A (INST MILITARY MEDICINE ACADEMY MILITARY SCIENCES PLA, dated 2021).

How the values were obtained:
[1] = target: SARS-CoV-2 WT RBD蛋白 (SARS-CoV-2, UniProt P0DTC2 319-541)
[2] = target: SARS-CoV-2野生型病毒的S蛋白 (SARS-CoV-2, UniProt P0DTC2 14-1273); test: cell-based or functional assay

B1: 全人源抗SARS-CoV-2单克隆抗体ZWD12 (antibody, V domains shown)
VH: EVQLVESGGGLVQPGGTLRLSCVASGFSFSNYWMSWVRQAPGKGLEWVANIKQDGSETHYVDSVKGRFTISRDNAKNSLYLQMNSLRADDTAVYFCVKDRTDWELIRGYFGHWGQGTQITVSS
VL: DIVMTQTPSSLSLSPGDRATLSCRASENIINYLAWYQQRPGQSPRLLIYDASNRATGIPARFSGSGSGTDFTLTISSLEPEDFAVYYCQQRIIWPPYTFGQGTKVDIKR
With B1 the Kd [1] was 0.356 nM, the koff [1] was 0.000167 s⁻¹ and the kon [1] was 468000 M⁻¹ s⁻¹. The “假病毒中和 EC50 (luciferase, HEK293T cells)” value [2] was 0.00586 µg/mL and the “真病毒中和 EC50 (Vero E6 cells, crystal violet)” value [2] was 0.103 µg/mL.
